In patent EP4624492A1 (Shanghai Hongcheng Biopharmaceutical Co., Ltd., dated 2025):
Positions count from the first letter of the chain named.

B1: 27B9-1G3_hIgG1 (antibody, V domains shown)
VH: EIQLQQSGPELEKPGASVKISCKASGYSFTGYNMNWVKKSNGKSLEWIGNIDPYYGGTNYNQKFKGKATLTVDKSSSTAYMQLKSLTSEDSAVYYCARETWFITTGVIKKGFYFDYWGQGTTLTVSS
VL: EIVLTQSPTTMAASPGEKITLACSASSIISSNYLHWYQQKPGFSPKLLIYRTSSLASGVPARFSGSGSGTSYSLTIGTMEAEDVATYYCQQGSSIPRTFGGGTKLEIKR
notes: also called hIgG1-subclass chimeric antibody 27B9-1G3
B2: 559E1B10 (antibody, V domains shown)
VH: KVQLQQSGPVLVKPGASVKMSCKASGYTFTDYYVNWMKQNYGKSPEWIGVINPHNGDTRYNQKFKGKATLTVDKSSSTANMELTSLTSGDSAVYYCASWLRRGYYFDSWGQGTTLTVSS
VL: DIVMTQSPATLSVTPGDRVSLSCRASQSISDYLHWYQQKSHESPRLLLKYVSQSISGIPSRFSGSGSGSDFTLTINSVEPEDVGVYYCQNGHSFPLTFGAGTKLELK
notes: Murine hybridoma antibody; also called 559E1B10 hybridoma antibody
B3: 27B9-1G3 (antibody, V domains shown)
VH: B1 VH
VL: EIVLTQSPTTMAASPGEKITLACSASSIISSNYLHWYQQKPGFSPKLLIYRTSSLASGVPARFSGSGSGTSYSLTIGTMEAEDVATYYCQQGSSIPRTFGGGTKLEIK
notes: Murine hybridoma antibody (supernatant or Protein A purified); also called 27B9-1G3 hybridoma antibody
B4: 563E10E12 (antibody, V domains shown)
VH: EVQLIESGGGLVQPKGSLKLSCAASGFNFNAYAMNWVRQAPGKGLEWVARIRSKSNNFATYYADSVTDRFTISRDDSESMLYLQMNNLKTEDTAMYYCVRHGRRDLLYSMDFWGQGTSVTVSS
VL: DVVMTQAAFSNPVTLGTSTSISCRSSKSLLHSNGITYLFWYLQKPGQSPQLLIYQMSNLASGVPDRFSGSGSGTDFTLRISRVEAEDVGVYYCAQSLELPLTFGGGTKLEIK
notes: Murine hybridoma antibody; also called 563E10E12 hybridoma antibody
B5: 589D7C7 (antibody, V domains shown)
VH: B4 VH with I5V, T67K, L81V, Q84E
VL: B4 VL with V2I, T19A, G89A
notes: Murine hybridoma antibody; also called 589D7C7 hybridoma antibody
B6: 569D11B5 (antibody, V domains shown)
VH: B4 VH with N57D, T67K, D68G, S79N, Y82F
VL: B4 VL with V2I, T19A
notes: Murine hybridoma antibody; also called 569D11B5 hybridoma antibody
B7: 563E10E12_hzH1L0_DE (antibody, human IgG1, kappa)
heavy: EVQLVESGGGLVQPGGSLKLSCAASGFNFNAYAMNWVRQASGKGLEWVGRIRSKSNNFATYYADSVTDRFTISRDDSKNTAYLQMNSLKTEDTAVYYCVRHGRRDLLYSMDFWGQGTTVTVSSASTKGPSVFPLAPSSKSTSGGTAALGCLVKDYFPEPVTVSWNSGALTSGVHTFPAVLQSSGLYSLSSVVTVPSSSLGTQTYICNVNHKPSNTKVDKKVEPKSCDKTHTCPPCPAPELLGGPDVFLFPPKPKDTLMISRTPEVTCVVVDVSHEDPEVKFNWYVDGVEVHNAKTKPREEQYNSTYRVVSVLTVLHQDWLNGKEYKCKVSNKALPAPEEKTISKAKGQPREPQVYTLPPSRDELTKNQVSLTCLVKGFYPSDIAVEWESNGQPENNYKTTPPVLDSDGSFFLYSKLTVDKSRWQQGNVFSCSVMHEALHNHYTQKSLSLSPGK
light: DIVMTQSPLSLPVTPGEPASISCRSSKSLLHSNGITYLFWYLQKPGQSPQLLIYQMSNLASGVPDRFSGSGSGTDFTLKISRVEAEDVGVYYCAQSLELPLTFGGGTKVEIKRTVAAPSVFIFPPSDEQLKSGTASVVCLLNNFYPREAKVQWKVDNALQSGNSQESVTEQDSKDSTYSLSSTLTLSKADYEKHKVYACEVTHQGLSSPVTKSFNRGEC
B8: 563E10E12_hzH1L0_VLPLL (antibody, human IgG1, kappa)
heavy: EVQLVESGGGLVQPGGSLKLSCAASGFNFNAYAMNWVRQASGKGLEWVGRIRSKSNNFATYYADSVTDRFTISRDDSKNTAYLQMNSLKTEDTAVYYCVRHGRRDLLYSMDFWGQGTTVTVSSASTKGPSVFPLAPSSKSTSGGTAALGCLVKDYFPEPVTVSWNSGALTSGVHTFPAVLQSSGLYSLSSVVTVPSSSLGTQTYICNVNHKPSNTKVDKKVEPKSCDKTHTCPPCPAPELVGGPSVFLLPPKPKDTLMISRTPEVTCVVVDVSHEDPEVKFNWYVDGVEVHNAKTKPPEEQYNSTLRVVSVLTVLHQDWLNGKEYKCKVSNKALPAPIEKTISKAKGQPREPQVYTLPPSRDELTKNQVSLTCLVKGFYPSDIAVEWESNGQPENNYKTTPLVLDSDGSFFLYSKLTVDKSRWQQGNVFSCSVMHEALHNHYTQKSLSLSPGK
light: B7 light
B9: 563E10E12_hzH1L0_DLE (antibody, human IgG1, kappa)
heavy: B8 heavy with V241L, S245D, L249F, P298R, L306Y, A336L, I338E, L402P
light: B7 light
B10: 559E1B10_mIgG2a (antibody)
heavy: KVQLQQSGPVLVKPGASVKMSCKASGYTFTDYYVNWMKQNYGKSPEWIGVINPHNGDTRYNQKFKGKATLTVDKSSSTANMELTSLTSGDSAVYYCASWLRRGYYFDSWGQGTTLTVSSAKTTAPSVYPLAPVCGDTTGSSVTLGCLVKGYFPEPVTLTWNSGSLSSGVHTFPAVLQSDLYTLSSSVTVTSSTWPSQSITCNVAHPASSTKVDKKIEPRGPTIKPCPPCKCPAPNLLGGPSVFIFPPKIKDVLMISLSPIVTCVVVDVSEDDPDVQISWFVNNVEVHTAQTQTHREDYNSTLRVVSALPIQHQDWMSGKEFKCKVNNKDLPAPIERTISKPKGSVRAPQVYVLPPPEEEMTKKQVTLTCMVTDFMPEDIYVEWTNNGKTELNYKNTEPVLDSDGSYFMYSKLRVEKKNWVERNSYSCSVVHEGLHNHHTTKSFSRTPGK
light: DIVMTQSPATLSVTPGDRVSLSCRASQSISDYLHWYQQKSHESPRLLLKYVSQSISGIPSRFSGSGSGSDFTLTINSVEPEDVGVYYCQNGHSFPLTFGAGTKLELKRADAAPTVSIFPPSSEQLTSGGASVVCFLNNFYPKDINVKWKIDGSERQNGVLNSWTDQDSKDSTYSMSSTLTLTKDEYERHNSYTCEATHKTSTSPIVKSFNRNEC
notes: also called mIgG2a-subclass chimeric antibody 559E1B10
B11: 563E10E12_mIgG2a (antibody)
heavy: EVQLIESGGGLVQPKGSLKLSCAASGFNFNAYAMNWVRQAPGKGLEWVARIRSKSNNFATYYADSVTDRFTISRDDSESMLYLQMNNLKTEDTAMYYCVRHGRRDLLYSMDFWGQGTSVTVSSAKTTAPSVYPLAPVCGDTTGSSVTLGCLVKGYFPEPVTLTWNSGSLSSGVHTFPAVLQSDLYTLSSSVTVTSSTWPSQSITCNVAHPASSTKVDKKIEPRGPTIKPCPPCKCPAPNLLGGPSVFIFPPKIKDVLMISLSPIVTCVVVDVSEDDPDVQISWFVNNVEVHTAQTQTHREDYNSTLRVVSALPIQHQDWMSGKEFKCKVNNKDLPAPIERTISKPKGSVRAPQVYVLPPPEEEMTKKQVTLTCMVTDFMPEDIYVEWTNNGKTELNYKNTEPVLDSDGSYFMYSKLRVEKKNWVERNSYSCSVVHEGLHNHHTTKSFSRTPGK
light: DVVMTQAAFSNPVTLGTSTSISCRSSKSLLHSNGITYLFWYLQKPGQSPQLLIYQMSNLASGVPDRFSGSGSGTDFTLRISRVEAEDVGVYYCAQSLELPLTFGGGTKLEIKRADAAPTVSIFPPSSEQLTSGGASVVCFLNNFYPKDINVKWKIDGSERQNGVLNSWTDQDSKDSTYSMSSTLTLTKDEYERHNSYTCEATHKTSTSPIVKSFNRNEC
notes: also called mIgG2a-subclass chimeric antibody 563E10E12
B12: 589D7C7_mIgG2a (antibody)
heavy: B11 heavy with I5V, T67K, L81V, Q84E
light: B11 light with V2I, T19A, G89A
notes: also called mIgG2a-subclass chimeric antibody 589D7C7
B13: 569D11B5_mIgG2a (antibody)
heavy: B11 heavy with N57D, T67K, D68G, S79N, Y82F
light: B11 light with V2I, T19A
notes: also called mIgG2a-subclass chimeric antibody 569D11B5

Target: T1, human CCR8 (human, UniProt P51685 1-355)
T1 construct: whole, on cells; the cell line is named under assay; also called hCCR8
T1 sequence (P51685 whole entry): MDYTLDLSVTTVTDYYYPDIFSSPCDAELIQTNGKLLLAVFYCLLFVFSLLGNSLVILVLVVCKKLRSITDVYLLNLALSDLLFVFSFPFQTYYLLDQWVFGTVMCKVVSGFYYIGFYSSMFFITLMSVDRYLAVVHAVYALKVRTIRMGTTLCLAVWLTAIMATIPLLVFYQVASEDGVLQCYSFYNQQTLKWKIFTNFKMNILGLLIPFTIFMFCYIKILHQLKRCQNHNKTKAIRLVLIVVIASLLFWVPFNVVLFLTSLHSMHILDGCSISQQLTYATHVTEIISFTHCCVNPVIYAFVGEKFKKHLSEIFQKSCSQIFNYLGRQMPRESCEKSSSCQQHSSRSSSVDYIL
Assay: flow cytometry, competition with 10 nM AF647-human CCL1 on 293F-hCCR8 cells

| Binder | IC50 [µg/mL] |
| --- | --- |
| B1 | 0.0959 |

Target: T1, human CCR8
Assay: flow cytometry, hybridoma supernatant on CHOK1-hCCR8 cells

| Binder | MFI [MFI] |
| --- | --- |
| B2 | 7350 |
| B3 | 2660 |
| B4 | 6370 |
| B5 | 6120 |
| B6 | 5800 |

Target: T1, human CCR8
Assay: cell-based or functional assay

| Binder | EC50 of activation of Jurkat-human FcγRIIIa(158V)-NFAT with 293F-hCCR8 target cells [µg/mL] |
| --- | --- |
| B7 | 0.0009 |
| B8 | 0.0017 |
| B9 | 0.0007 |

Target: T1, human CCR8
Assay: cell-based or functional assay
Remark: another data set of the same source

| Binder | IC50 of blockade of CCL1-induced β-arrestin recruitment (Tango-H_CCR8-CHO-K1 cells) [µg/mL] |
| --- | --- |
| B1 | 0.26 |
| B10 | 1.76 |
| B11 | 0.902 |
| B12 | 0.993 |
| B13 | 0.997 |

Target: T1, human CCR8
Assay: flow cytometry, competition with 10 nM AF647-human CCL1 on 293F-hCCR8 cells
Remark: another data set of the same source

| Binder | IC50 [µg/mL] |
| --- | --- |
| B1 | 0.273 |
| B10 | 0.0649 |
| B11 | 0.0411 |
| B12 | 0.0579 |
| B13 | 0.0544 |

Target: T1, human CCR8
Assay: as above
Remark: another data set of the same source

| Binder | IC50 [µg/mL] |
| --- | --- |
| B2 | 0.0785 |
| B3 | 0.127 |
| B4 | 0.132 |
| B5 | 0.075 |
| B6 | 0.0882 |

Target: T1, human CCR8
Assay: flow cytometry on 293F-hCCR8 cells

| Binder | EC50 [µg/mL] |
| --- | --- |
| B1 | 0.273 |
| B10 | 0.1 |
| B11 | 0.0833 |
| B12 | 0.0947 |
| B13 | 0.0835 |

Target: T2, cynomolgus CCR8 (cynomolgus monkey)
T2 construct: whole, on cells; the constructs of the cell lines are not tied to it word for word; also called cynoCCR8
Assay: flow cytometry, hybridoma supernatant on CHOK1-cynoCCR8 cells

| Binder | MFI [MFI] |
| --- | --- |
| B2 | 21900 |
| B3 | 14000 |
| B4 | 16900 |
| B5 | 15200 |
| B6 | 13200 |

Target: T2, cynomolgus CCR8
Assay: flow cytometry on 293T-cynoCCR8 cells

| Binder | EC50 [µg/mL] |
| --- | --- |
| B1 | 0.305 |
| B10 | 0.0819 |
| B11 | 0.0664 |
| B12 | 0.0662 |
| B13 | 0.072 |

Target: T1, human CCR8
Assay: cell-based or functional assay
Remark: another data set of the same source

| Binder | EC50 of ADCC effect (lysis%) by human PBMCs on CHOK1-hCCR8 cells [µg/mL] |
| --- | --- |
| B7 | 0.0006 |
| B9 | 0.00039 |

Target: T1, human CCR8
Assay: flow cytometry on 293F-hCCR8 cells
Remark: another data set of the same source

| Binder | EC50 [µg/mL] |
| --- | --- |
| B1 | 0.139 |

Target: T1, human CCR8
Assay: cell-based or functional assay
Remark: another data set of the same source

| Binder | EC50 of activation of Jurkat-human FcγRIIIa(158V)-NFAT with HuT78 target cells [µg/mL] |
| --- | --- |
| B7 | 0.0083 |
| B8 | 0.0117 |
| B9 | 0.0057 |

Target: T1, human CCR8
Assay: flow cytometry on 293F-hCCR8 cells
Remark: another data set of the same source

| Binder | EC50 [µg/mL] |
| --- | --- |
| B2 | 0.107 |
| B3 | 0.15 |
| B4 | 0.195 |
| B5 | 0.361 |
| B6 | 0.159 |

Target: T2, cynomolgus CCR8
Assay: flow cytometry on 293T-cynoCCR8 cells
Remark: another data set of the same source

| Binder | EC50 [µg/mL] |
| --- | --- |
| B2 | 0.322 |
| B3 | 0.146 |
| B4 | 0.591 |
| B5 | 0.298 |
| B6 | 0.444 |
